These results are taken from patent EP3342782A1.

One assay concerns the target human FcγRIIIa on PBMCs expressing heterozygous V158/F158 FcγRIIIa (human) (UniProt P08637). Nature of the assay: cell-based or functional assay.
On to V264I/I332E alemtuzumab (antibody), for which the ADCC log(EC50) was 0.6 log(ng/ml). Still for that read-out and setting: for S239D/I332E alemtuzumab (antibody) the value was 0.49 log(ng/ml).

In the next assay the target is extracellular region of human V158 FcγRIIIa with C-terminal 6x His-tag and GST-tag (human) (UniProt P08637). The assay can be described thus: SPR; fold vs WT. (In general: In SPR one partner is held on a chip, and binding of the other changes the refractive index at the surface.)
The substance E258Y alemtuzumab (antibody) gave a Fold WT of 1.77 fold. The substance K246Y alemtuzumab (antibody) had a Fold WT of 7.07 fold. Turning to E272H alemtuzumab (antibody), the Fold WT was 384 fold. In turn, E283L alemtuzumab (antibody) yielded a Fold WT of 2.56 fold. In the case of S239E alemtuzumab (antibody), the Fold WT was 3.28 fold. On the same count and under the same terms, under I332D alemtuzumab (antibody) stands 11.2 fold; under T260H alemtuzumab (antibody), 1.86 fold. Consider E258H alemtuzumab (antibody), for which the Fold WT is 5.5 fold. Substance S267E alemtuzumab (antibody) returned a Fold WT of 2.62 fold. The same measure, in the same setting: for K326E alemtuzumab (antibody) the value was 3.13 fold; for H268D alemtuzumab (antibody), 5.66 fold.

On to R255Y alemtuzumab (antibody), for which the Fold WT was 1.41 fold.

As for K246H alemtuzumab (antibody), the Fold WT came to 22.4 fold.
